Experimental data reported in PMC10865538 (BMC Infectious Diseases, 2024).

B1: sdAb42 (VHH)
VHH: EVQLVESGGGLVQPGGSLRLSCAASGNTSTRHPMSWVRQAPGKGLELVASIGRGEITYYADSVKGRFTISRDNSKNTLYLQMNSLRAEDTAVYYCAVDAVFGGRHSHWGQGTLVTVSS
B2: sdAb38 (VHH)
VHH: EVQLVESGGGLVQPGGSLRLSCAASGNTSTRHPMSWVRQAPGKGLELVASIGRGEITYYADSVKGRFTISRDNSKNTLYLQMNSLRAEDTAVYYCAVCLRSVFVNCHNFAYWGQGTLVTVSS
B3: sdAb10 (VHH)
VHH: EVQLVESGGGLVQPGGSLRLSCAASGNTFPARTMSWVRQAPGKGLELVASIGPGRSTIYADSVKGRFTISRDNSKNTLYLQMNSLRAEDTAVYYCAVAYTSGLALRGSFSYWGQGTLVTVSS
B4: sdAb39 (VHH)
VHH: EVQLVESGGGLVQPGGSLRLSCAASGNTSTRHPMSWVRQAPGKGLELVASIGRGEITYYADSVKGRFTISRDNSKNTLYLQMNSLRAEDTAVYYCAAFVDFLSRHNSRRPYPHGYWGQGTLVTVSS
B5: sdAb12 (VHH)
VHH: EVQLVESGGGLVQPGGSLRLSCAASGNTFPARTMSWVRQAPGKGLELVASIGRGEITYYADSVKGRFTISRDNSKNTLYLQMNSLRAEDTAVYYCAAPAHGSWMSRRPHIYWGQGTLVTVSS

Molecular target: SARS-CoV-2 S protein receptor-binding domain (R319-F541) (SARS-CoV-2, UniProt P0DTC2)
Test: ELISA
Settings: both partners purified

| Binder | binding result | EC50 |
| --- | --- | --- |
| B1 | binds |  |
| B2 | binds |  |
| B3 | binds |  |
| B4 |  | 4 nM |
| B5 | binds |  |
